Assay results reported in US20180298083A1.

How the values were obtained:
[1] = biological target: D167N (HIV-1); assay: gp120 capture ELISA
[2] = biological target: D279A (HIV-1); assay: gp120 capture ELISA
[3] = biological target: D368A (HIV-1); assay: gp120 capture ELISA
[4] = biological target: D457A (HIV-1); assay: gp120 capture ELISA
[5] = biological target: D474A (HIV-1); assay: gp120 capture ELISA
[6] = biological target: E370A (HIV-1); assay: gp120 capture ELISA
[7] = biological target: G366A (HIV-1); assay: gp120 capture ELISA
[8] = biological target: G367A (HIV-1); assay: gp120 capture ELISA
[9] = biological target: G471A (HIV-1); assay: gp120 capture ELISA
[10] = biological target: G472A (HIV-1); assay: gp120 capture ELISA
[11] = biological target: G473A (HIV-1); assay: gp120 capture ELISA
[12] = biological target: I371A (HIV-1); assay: gp120 capture ELISA
[13] = biological target: I467A (HIV-1); assay: gp120 capture ELISA
[14] = biological target: K282A (HIV-1); assay: gp120 capture ELISA
[15] = biological target: M373A (HIV-1); assay: gp120 capture ELISA
[16] = biological target: M475A (HIV-1); assay: gp120 capture ELISA
[17] = biological target: N197T (HIV-1); assay: gp120 capture ELISA
[18] = biological target: N262A (HIV-1); assay: gp120 capture ELISA
[19] = biological target: N280A (HIV-1); assay: gp120 capture ELISA
[20] = biological target: N332A (HIV-1); assay: gp120 capture ELISA
[21] = biological target: P369A (HIV-1); assay: gp120 capture ELISA
[22] = biological target: R469A (HIV-1); assay: gp120 capture ELISA
[23] = biological target: R476A (HIV-1); assay: gp120 capture ELISA
[24] = biological target: S365A (HIV-1); assay: gp120 capture ELISA
[25] = biological target: T283A (HIV-1); assay: gp120 capture ELISA
[26] = biological target: V372A (HIV-1); assay: gp120 capture ELISA
[27] = biological target: HIV-1 YU2 gp120 (HIV-1 strain YU2) (UniProt P35961); assay: competition ELISA on gp120 YU2, unlabelled CD4-Ig against CD4Ig-biotin

Q: With “CD4-Ig (from UniProt P01730 26-203) (Fc fusion)” as the substance, how does the Binding affinity relative to WT (%) [1] read?
A: 58%

Q: What about the Binding affinity relative to WT (%) [2] of the same substance?
A: 49%

Q: What about the Binding affinity relative to WT (%) [3] of the same substance?
A: 5%

Q: What about the Binding affinity relative to WT (%) [4] of the same substance?
A: 3%

Q: And the Binding affinity relative to WT (%) [5]?
A: 45%

Q: What about the Binding affinity relative to WT (%) [6] of the same substance?
A: 5%

Q: What about the Binding affinity relative to WT (%) [7] of the same substance?
A: 7%

Q: And the Binding affinity relative to WT (%) [8]?
A: 3%

Q: What about the Binding affinity relative to WT (%) [9] of the same substance?
A: 141%

Q: What about the Binding affinity relative to WT (%) [10] of the same substance?
A: 2%

Q: What about the Binding affinity relative to WT (%) [11] of the same substance?
A: 0%

Q: What about the Binding affinity relative to WT (%) [12] of the same substance?
A: 12%

Q: And the Binding affinity relative to WT (%) [13]?
A: 115%

Q: What about the Binding affinity relative to WT (%) [14] of the same substance?
A: 53%

Q: What about the Binding affinity relative to WT (%) [15] of the same substance?
A: 91%

Q: What about the Binding affinity relative to WT (%) [16] of the same substance?
A: 117%

Q: What about the Binding affinity relative to WT (%) [17] of the same substance?
A: 25%

Q: And the Binding affinity relative to WT (%) [18]?
A: 2%

Q: And the Binding affinity relative to WT (%) [19]?
A: 75%

Q: What about the Binding affinity relative to WT (%) [20] of the same substance?
A: 57%

Q: And the Binding affinity relative to WT (%) [21]?
A: 54%

Q: And the Binding affinity relative to WT (%) [22]?
A: 7%

Q: What about the Binding affinity relative to WT (%) [23] of the same substance?
A: 79%

Q: And the Binding affinity relative to WT (%) [24]?
A: 34%

Q: What about the Binding affinity relative to WT (%) [25] of the same substance?
A: 55%

Q: What about the Binding affinity relative to WT (%) [26] of the same substance?
A: 73%

Q: What about the IC50 (read off the curve) [27] of the same substance?
A: 0.06 µg/mL
